Assay results from US20240084003A1 (SIMCERE ZAIMING PHARMACEUTICAL, published 2024).

T1: murine CD22 protein (ACROBiosystems, SI2-M52Ha) (murine, UniProt P35329 22-708)
T1 construct: extracellular domain; also called murine CD22-ECD; murine CD22-ECD-His
T1 sequence (looked up): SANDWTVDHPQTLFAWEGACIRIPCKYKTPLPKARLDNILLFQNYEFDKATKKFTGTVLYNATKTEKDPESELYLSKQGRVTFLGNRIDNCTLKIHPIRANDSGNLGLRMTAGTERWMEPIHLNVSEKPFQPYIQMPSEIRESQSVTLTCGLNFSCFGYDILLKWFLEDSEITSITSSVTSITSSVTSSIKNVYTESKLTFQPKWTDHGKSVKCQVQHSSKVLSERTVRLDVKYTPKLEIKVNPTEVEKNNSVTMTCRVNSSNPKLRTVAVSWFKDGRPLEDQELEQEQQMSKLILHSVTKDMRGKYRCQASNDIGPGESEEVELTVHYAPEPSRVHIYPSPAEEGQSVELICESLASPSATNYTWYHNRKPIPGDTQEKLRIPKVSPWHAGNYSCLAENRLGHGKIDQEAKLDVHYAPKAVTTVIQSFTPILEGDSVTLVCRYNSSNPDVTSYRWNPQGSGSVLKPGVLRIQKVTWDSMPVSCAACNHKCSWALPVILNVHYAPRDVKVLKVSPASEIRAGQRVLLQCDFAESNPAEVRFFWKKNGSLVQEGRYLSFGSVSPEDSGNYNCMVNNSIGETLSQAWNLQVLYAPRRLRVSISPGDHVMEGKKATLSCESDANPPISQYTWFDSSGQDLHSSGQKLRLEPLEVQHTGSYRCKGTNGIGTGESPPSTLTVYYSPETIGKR


Target: T1, murine CD22 protein (ACROBiosystems, …)
Assay: ELISA, murine CD22-ECD-His coated
Method in brief: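 Coat 2 μg/mL CD22 in PBS, overnight 4° C; block PBS/2% BSA 2 h RT. Ab 2 h 37° C; HRP anti-species secondary 2 h 37° C. TMB 30 min RT, stop 1.0 N HCl.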

binding result	Binder
no binding (tested: 100 nM)	F1.60.9 (antibody, human IgG1, kappa, V domains shown, Human-murine chimeric IgG1, kappa) VH: QVQLKESGPGLVAPSQSLSITCTVSGLSLNNYGVSWVRQPPGKGLEWLGVIWGDGSTNYHSALISRLSISKDNSKSQVFLKLNSLHTDDTATYYCAINWGDYWGQGTTLIVSS VL: DIKMTQSPSSMNASLGERVTITCKASQDINSYLSWFQQKPGKSPKILIYRANRLIDGVPSRFSGSGSGQDYSLTISSLEYEDMGIYYCLQYGVFPLTFGAGTKLELKR
no binding (tested: 100 nM)	F2.180.16 (antibody, human IgG1, lambda, V domains shown, Human-murine chimeric IgG1, lambda) VH: EVKLVESGGGLVLPGGSLKISCAASGFTFSDYYMYWIRQTPDKRLEWVAYISNTGYSTFYPDSVKGRFTVSRDNAKNTLYLQMSRLQSEDTAMYYCARHGILYAMDYWGQGTSVTVSS VL: QPVLTQSSSASFSLGASAKLTCTLSSQYSTYTIGWYQQQPLKPPKYVMELKHDGSRHTGDGIPDRFSGSSSGADRYLSISNIQPEDEATYICGVGDTIKEQFMYVFGGGTKVTVLG
no binding (tested: 100 nM)	F2.104.10 (antibody, human IgG1, lambda, V domains shown, Human-murine chimeric IgG1, lambda) VH: EVQLVESGGGFVKPGGSLKLSCAASGFTFSDYGMNWFRQAPEKGLEWVAYISRGSHTIYYADTVKGRFTISRDNAENTLFLQMTSLRSNDTAMYYCVRMAGYYAMDYWGQGTSLTVSS VL: QLVLTQSSSASFSLGASAKLTCTLSSQHSSYIIEWYQQQPLKPPKYVMEVKKDGSHSTGDGIPDRFSGSSSGADRYLSISNIQSEDEAIYICGVGDTIKEQFVYVFGGGTKVTVLG
no binding (tested: 100 nM)	F2.343.16 (antibody, human IgG1, lambda, V domains shown, Human-murine chimeric IgG1, lambda) VH: QVQLKQSGPGLVQPSQSLSITCTVSGFSLTGYGVQWVRQSPGKGLEWLGVIWGGGGTDYNAAFISRLNIIKDNSKSQVFFKMNSLQADDTAIYYCARYSKYGHFDVWGTGTAVTVSS VL: QAVVTQESALTTSPGETVTLTCRSSTGAVTTSNYANWVQEKPDHLFTGLIGGTYNRVPGVPARFSGSLIGDKAALTITGAQTEDEAIYFCALWYSNHFWVFGGGTKLTVLG
